Laboratory results published in patent US20160113911A1, “METHODS AND COMPOSITIONS FOR THE TREATMENT OF CANCER” (THE GENERAL HOSPITAL CORPORATION, priority 2013, published 2016).

B1: 2A-V743I*: KDM4A mutation (protein, UniProt O75164 2-1064, looked up, variant V743I)
Lysine-specific demethylase 4A: ASESETLNPSARIMTFYPTMEEFRNFSRYIAYIESQGAHRAGLAKVVPPKEWKPRASYDDIDDLVIPAPIQQLVTGQSGLFTQYNIQKKAMTVREFRKIANSDKYCTPRYSEFEELERKYWKNLTFNPPIYGADVNGTLYEKHVDEWNIGRLRTILDLVEKESGITIEGVNTPYLYFGMWKTSFAWHTEDMDLYSINYLHFGEPKSWYSVPPEHGKRLERLAKGFFPGSAQSCEAFLRHKMTLISPLMLKKYGIPFDKVTQEAGEFMITFPYGYHAGFNHGFNCAESTNFATRRWIEYGKQAVLCSCRKDMVKISMDVFVRKFQPERYKLWKAGKDNTVIDHTLPTPEAAEFLKESELPPRAGNEEECPEEDMEGVEDGEEGDLKTSLAKHRIGTKRHRVCLEIPQEVSQSELFPKEDLSSEQYEMTECPAALAPVRPTHSSVRQVEDGLTFPDYSDSTEVKFEELKNVKLEEEDEEEEQAAAALDLSVNPASVGGRLVFSGSKKKSSSSLGSGSSRDSISSDSETSEPLSCRAQGQTGVLTVHSYAKGDGRVTVGEPCTRKKGSAARSFSERELAEVADEYMFSLEENKKSKGRRQPLSKLPRHHPLVLQECVSDDETSEQLTPEEEAEETEAWAKPLSQLWQNRPPNFEAEKEFNETMAQQAPHCAVCMIFQTYHQVEFGGFNQNCGNASDLAPQKQRTKPLIPEMCFTSTGCSTDINLSTPYLEEDGTSILVSCKKCSIRVHASCYGVPPAKASEDWMCSRCSANALEEDCCLCSLRGGALQRANDDRWVHVSCAVAILEARFVNIAERSPVDVSKIPLPRFKLKCIFCKKRRKRTAGCCVQCSHGRCPTAFHVSCAQAAGVMMQPDDWPFVVFITCFRHKIPNLERAKGALQSITAGQKVISKHKNGRFYQCEVVRLTTETFYEVNFDDGSFSDNLYPEDIVSQDCLQFGPPAEGEVVQVRWTDGQVYGAKFVASHPIQMYQVEFEDGSQLVVKRDDVYTLDEELPKRVKSRLSVASDMRFNEIFTEKEVKQEKKRQRVINSRYREDYIEPALYRAIME
B2: 2A-R825H*: KDM4A mutation (protein, UniProt O75164 2-1064, looked up, variant R825H)
Lysine-specific demethylase 4A: ASESETLNPSARIMTFYPTMEEFRNFSRYIAYIESQGAHRAGLAKVVPPKEWKPRASYDDIDDLVIPAPIQQLVTGQSGLFTQYNIQKKAMTVREFRKIANSDKYCTPRYSEFEELERKYWKNLTFNPPIYGADVNGTLYEKHVDEWNIGRLRTILDLVEKESGITIEGVNTPYLYFGMWKTSFAWHTEDMDLYSINYLHFGEPKSWYSVPPEHGKRLERLAKGFFPGSAQSCEAFLRHKMTLISPLMLKKYGIPFDKVTQEAGEFMITFPYGYHAGFNHGFNCAESTNFATRRWIEYGKQAVLCSCRKDMVKISMDVFVRKFQPERYKLWKAGKDNTVIDHTLPTPEAAEFLKESELPPRAGNEEECPEEDMEGVEDGEEGDLKTSLAKHRIGTKRHRVCLEIPQEVSQSELFPKEDLSSEQYEMTECPAALAPVRPTHSSVRQVEDGLTFPDYSDSTEVKFEELKNVKLEEEDEEEEQAAAALDLSVNPASVGGRLVFSGSKKKSSSSLGSGSSRDSISSDSETSEPLSCRAQGQTGVLTVHSYAKGDGRVTVGEPCTRKKGSAARSFSERELAEVADEYMFSLEENKKSKGRRQPLSKLPRHHPLVLQECVSDDETSEQLTPEEEAEETEAWAKPLSQLWQNRPPNFEAEKEFNETMAQQAPHCAVCMIFQTYHQVEFGGFNQNCGNASDLAPQKQRTKPLIPEMCFTSTGCSTDINLSTPYLEEDGTSILVSCKKCSVRVHASCYGVPPAKASEDWMCSRCSANALEEDCCLCSLRGGALQRANDDRWVHVSCAVAILEARFVNIAERSPVDVSKIPLPHFKLKCIFCKKRRKRTAGCCVQCSHGRCPTAFHVSCAQAAGVMMQPDDWPFVVFITCFRHKIPNLERAKGALQSITAGQKVISKHKNGRFYQCEVVRLTTETFYEVNFDDGSFSDNLYPEDIVSQDCLQFGPPAEGEVVQVRWTDGQVYGAKFVASHPIQMYQVEFEDGSQLVVKRDDVYTLDEELPKRVKSRLSVASDMRFNEIFTEKEVKQEKKRQRVINSRYREDYIEPALYRAIME
B3: 2A-R825C*: KDM4A mutation (protein, UniProt O75164 2-1064, looked up, variant R825C)
Lysine-specific demethylase 4A: ASESETLNPSARIMTFYPTMEEFRNFSRYIAYIESQGAHRAGLAKVVPPKEWKPRASYDDIDDLVIPAPIQQLVTGQSGLFTQYNIQKKAMTVREFRKIANSDKYCTPRYSEFEELERKYWKNLTFNPPIYGADVNGTLYEKHVDEWNIGRLRTILDLVEKESGITIEGVNTPYLYFGMWKTSFAWHTEDMDLYSINYLHFGEPKSWYSVPPEHGKRLERLAKGFFPGSAQSCEAFLRHKMTLISPLMLKKYGIPFDKVTQEAGEFMITFPYGYHAGFNHGFNCAESTNFATRRWIEYGKQAVLCSCRKDMVKISMDVFVRKFQPERYKLWKAGKDNTVIDHTLPTPEAAEFLKESELPPRAGNEEECPEEDMEGVEDGEEGDLKTSLAKHRIGTKRHRVCLEIPQEVSQSELFPKEDLSSEQYEMTECPAALAPVRPTHSSVRQVEDGLTFPDYSDSTEVKFEELKNVKLEEEDEEEEQAAAALDLSVNPASVGGRLVFSGSKKKSSSSLGSGSSRDSISSDSETSEPLSCRAQGQTGVLTVHSYAKGDGRVTVGEPCTRKKGSAARSFSERELAEVADEYMFSLEENKKSKGRRQPLSKLPRHHPLVLQECVSDDETSEQLTPEEEAEETEAWAKPLSQLWQNRPPNFEAEKEFNETMAQQAPHCAVCMIFQTYHQVEFGGFNQNCGNASDLAPQKQRTKPLIPEMCFTSTGCSTDINLSTPYLEEDGTSILVSCKKCSVRVHASCYGVPPAKASEDWMCSRCSANALEEDCCLCSLRGGALQRANDDRWVHVSCAVAILEARFVNIAERSPVDVSKIPLPCFKLKCIFCKKRRKRTAGCCVQCSHGRCPTAFHVSCAQAAGVMMQPDDWPFVVFITCFRHKIPNLERAKGALQSITAGQKVISKHKNGRFYQCEVVRLTTETFYEVNFDDGSFSDNLYPEDIVSQDCLQFGPPAEGEVVQVRWTDGQVYGAKFVASHPIQMYQVEFEDGSQLVVKRDDVYTLDEELPKRVKSRLSVASDMRFNEIFTEKEVKQEKKRQRVINSRYREDYIEPALYRAIME
B4: 2A-E558Q: KDM4A mutation (protein)
chain: MASESETLNPSARIMTFYPTMEEFRNFSRYIAYIESQGAHRAGLAKVVPPKEWKPRASYDDIDDLVIPAPIQQLVTGQSGLFTQYNIQKKAMTVREFRKIANSDKYCTPRYSEFEELERKYWKNLTFNPPIYGADVNGTLYEKHVDEWNIGRLRTILDLVEKESGITIEGVNTPYLYFGMWKTSFAWHTEDMDLYSINYLHFGEPKSWYSVPPEHGKRLERLAKGFFPGSAQSCEAFLRHKMTLISPLMLKKYGIPFDKVTQEAGEFMITFPYGYHAGFNHGFNCAESTNFATRRWIEYGKQAVLCSCRKDMVKISMDVFVRKFQPERYKLWKAGKDNTVIDHTLPTPEAAEFLKESELPPRAGNEEECPEEDMEGVEDGEEGDLKTSLAKHRIGTKRHRVCLEIPQEVSQSELFPKEDLSSEQYEMTECPAALAPVRPTHSSVRQVEDGLTFPDYSDSTEVKFEELKNVKLEEEDEEEEQAAAALDLSVNPASVGGRLVFSGSKKKSSSSLGSGSSRDSISSDSETSEPLSCRAQGQTGVLTVHSYAKGDGRVTVGQPCTRKKGSAARSFSERELAEVADEYMFSLEENKKSKGRRQPLSKLPRHHPLVLQECVSDDETSEQLTPEEEAEETEAWAKPLSQLWQNRPPNFEAEKEFNETMAQQAPHCAVCMIFQTYHQVEFGGFNQNCGNASDLAPQKQRTKPLIPEMCFTSTGCSTDINLSTPYLEEDGTSILVSCKKCSVRVHASCYGVPPAKASEDWMCSRCSANALEEDCCLCSLRGGALQRANDDRWVHVSCAVAILEARFVNIAERSPVDVSKIPLPRFKLKCIFCKKRRKRTAGCCVQCSHGRCPTAFHVSCAQAAGVMMQPDDWPFVVFITCFRHKIPNLERAKGALQSITAGQKVISKHKNGRFYQCEVVRLTTETFYEVNFDDGSFSDNLYPEDIVSQDCLQFGPPAEGEVVQVRWTDGQVYGAKFVASHPIQMYQVEFEDGSQLVVKRDDVYTLDEELPKRVKSRLSVASDMRFNEIFTEKEVKQEKKRQRVINSRYREDYIEPALYRAIME
B5: 2A-R765Q: KDM4A mutation (protein)
chain: MASESETLNPSARIMTFYPTMEEFRNFSRYIAYIESQGAHRAGLAKVVPPKEWKPRASYDDIDDLVIPAPIQQLVTGQSGLFTQYNIQKKAMTVREFRKIANSDKYCTPRYSEFEELERKYWKNLTFNPPIYGADVNGTLYEKHVDEWNIGRLRTILDLVEKESGITIEGVNTPYLYFGMWKTSFAWHTEDMDLYSINYLHFGEPKSWYSVPPEHGKRLERLAKGFFPGSAQSCEAFLRHKMTLISPLMLKKYGIPFDKVTQEAGEFMITFPYGYHAGFNHGFNCAESTNFATRRWIEYGKQAVLCSCRKDMVKISMDVFVRKFQPERYKLWKAGKDNTVIDHTLPTPEAAEFLKESELPPRAGNEEECPEEDMEGVEDGEEGDLKTSLAKHRIGTKRHRVCLEIPQEVSQSELFPKEDLSSEQYEMTECPAALAPVRPTHSSVRQVEDGLTFPDYSDSTEVKFEELKNVKLEEEDEEEEQAAAALDLSVNPASVGGRLVFSGSKKKSSSSLGSGSSRDSISSDSETSEPLSCRAQGQTGVLTVHSYAKGDGRVTVGEPCTRKKGSAARSFSERELAEVADEYMFSLEENKKSKGRRQPLSKLPRHHPLVLQECVSDDETSEQLTPEEEAEETEAWAKPLSQLWQNRPPNFEAEKEFNETMAQQAPHCAVCMIFQTYHQVEFGGFNQNCGNASDLAPQKQRTKPLIPEMCFTSTGCSTDINLSTPYLEEDGTSILVSCKKCSVRVHASCYGVPPAKASEDWMCSQCSANALEEDCCLCSLRGGALQRANDDRWVHVSCAVAILEARFVNIAERSPVDVSKIPLPRFKLKCIFCKKRRKRTAGCCVQCSHGRCPTAFHVSCAQAAGVMMQPDDWPFVVFITCFRHKIPNLERAKGALQSITAGQKVISKHKNGRFYQCEVVRLTTETFYEVNFDDGSFSDNLYPEDIVSQDCLQFGPPAEGEVVQVRWTDGQVYGAKFVASHPIQMYQVEFEDGSQLVVKRDDVYTLDEELPKRVKSRLSVASDMRFNEIFTEKEVKQEKKRQRVINSRYREDYIEPALYRAIME

Assays:
H3K36me3 = assay: H3K36 demethylase activity of KDM4A variants in transfected cells (immunofluorescence); assay type: cell-based; parameters: key: + indicates active; − indicates inactive; +/− indicates partial acitivty; conditions: KDM4A mutations
Protocol: The indicated NHF-tagged KDM4A deletion constructs were transfected into RPE cells grown on coverslips in 10 cm dishes using X-tremeGENE 9™ DNA transfection reagent (Roche). H3K36me3 and subcellular localization were assayed by examining transfected cells (positive for HA staining; HA.11 Covance) following fixation in 3.7% PFA in PBS (Whetstine et al., 2006).
All immunofluorescence experiments were performed as in (Black et al., 2013). For the localization experiment a minimum of 50 cells were blinded and scored. For the catalytic activity, cells overexpressing a high level of KDM4A WT or SNP-A482 were analyzed in a non quantitative manner.

H3K9me3 = assay: H3K9 demethylase activity of KDM4 variants in transfected cells; assay type: cell-based; parameters: key: + indicates active; − indicates inactive; +/− indicates partial acitivty; conditions: KDM4A mutations

| Molecule | H3k36 Demethylase Activity (H3K36me3) | H3k9 Demethylase Activity (H3K9me3) |
| --- | --- | --- |
| B1 | + | + |
| B2 | + | + |
| B3 | + | + |
| B4 | + | + |
| B5 | − | − |
